Target: T1, A2 domain of von Willebrand Factor (vWF-A2, recombinant), P04275
T1 chain: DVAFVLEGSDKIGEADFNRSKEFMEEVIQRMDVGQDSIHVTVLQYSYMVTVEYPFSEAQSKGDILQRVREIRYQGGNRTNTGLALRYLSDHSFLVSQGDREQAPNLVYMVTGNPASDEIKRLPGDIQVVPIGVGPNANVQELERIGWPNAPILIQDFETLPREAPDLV

B1: recombinant ADAMTS13 (protein)
chain: AAGGILHLELLVAVGPDVFQAHQEDTERYVLTNLNIGAELLRDPSLGAQFRVHLVKMVILTEPEGAPNITANLTSSLLSVCGWSQTINPEDDTDPGHADLVLYITRFDLELPDGNRQVRGVTQLGGACSPTWSCLITEDTGFDLGVTIAHEIGHSFGLEHDGAPGSGCGPSGHVMASDGAAPRAGLAWSPCSRRQLLSLLSAGRARCVWDPPRPQPGSAGHPPDAQPGLYYSANEQCRVAFGPKAVACTFAREHLDMCQALSCHTDPLDQSSCSRLLVPLLDGTECGVEKWCSKGRCRSLVELTPIAAVHGRWSSWGPRSPCSRSCGGGVVTRRRQCNNPRPAFGGRACVGADLQAEMCNTQACEKTQLEFMSQQCARTDGQPLRSSPGGASFYHWGAAVPHSQGDALCRHMCRAIGESFIMKRGDSFLDGTRCMPSGPREDGTLSLCVSGSCRTFGCDGRMDSQQVWDRCQVCGGDNSTCSPRKGSFTAGRAREYVTFLTVTPNLTSVYIANHRPLFTHLAVRIGGRYVVAGKMSISPNTTYPSLLEDGRVEYRVALTEDRLPRLEEIRIWGPLQEDADIQVYRRYGEEYGNLTRPDITFTYFQPKPRQAWVWAAVRGPCSVSCGAGLRWVNYSCLDQARKELVETVQCQGSQQPPAWPEACVLEPCPPYWAVGDFGPCSASCGGGLRERPVRCVEAQGSLLKTLPPARCRAGAQQPAVALETCNPQPCPARWEVSEPSSCTSAGGAGLALENETCVPGADGLEAPVTEGPGSVDEKLPAPEPCVGMSCPPGWGHLDATSAGEKAPSPWGSIRTGAQAAHVWTPAAGSCSVSCGRGLMELRFLCMDSALRVPVQEELCGLASKPGSRREVCQAVPCPARWQYKLAACSVSCGRGVVRRILYCARAHGEDDGEEILLDTQCQGLPRPEPQEACSLEPCPPRWKVMSLGPCSASCGLGTARRSVACVQLDQGQDVEVDEAACAALVRPEASVPCLIADCTYRWHVGTWMECSVSCGDGIQRRRDTCLGPQAQAPVPADFCQHLPKPVTVRGCWAGPCVGQGTPSLVPHEEAAAPGRTTATPAGASLEWSQARGLLFSPAPQPRRLLPGPQENSVQSSACGRQHLEPTGTIDMRGPGQADCAVAIGRPLGEVVTLRVLESSLNCSAGDMLLLWGRLTWRKMCRKLLDMTFSSKTNTLVVRQRCGRPGGGVLLRYGSQLAPETFYRECDMQLFGPWGEIVSPSLSPATSNAGGCRLFINVAPHARIAIHALATNMGAGTEGANASYILIRDTHSLRTTAFHGQQVLYWESESSQAEMEFSEGFLKAQASLRGQYWTLQSWVPEMQDPQSWKGKEGT
Q: How did the “enzymatic cleavage of vWF subdomain A2 detected by Western blot” value turn out when B1 was run?
A: the cell-expressed ADAMTS13 (lane 4) appears more active than the recombinant ADAMTS13 (lane 2), despite the fact that there is 6× less cell-expressed ADAMTS13 (13ng) than recombinant ADAMTS13 (75 ng) in the assay

B2: ADAMTS13 fused to the extracellular domain of GPA, expressed on K562 erythroleukemia cells (protein)
chain: AAGGILHLELLVAVGPDVFQAHQEDTERYVLTNLNIGAELLRDPSLGAQFRVHLVKMVILTEPEGAPNITANLTSSLLSVCGWSQTINPEDDTDPGHADLVLYITRFDLELPDGNRQVRGVTQLGGACSPTWSCLITEDTGFDLGVTIAHEIGHSFGLEHDGAPGSGCGPSGHVMASDGAAPRAGLAWSPCSRRQLLSLLSAGRARCVWDPPRPQPGSAGHPPDAQPGLYYSANEQCRVAFGPKAVACTFAREHLDMCQALSCHTDPLDQSSCSRLLVPLLDGTECGVEKWCSKGRCRSLVELTPIAAVHGRWSSWGPRSPCSRSCGGGVVTRRRQCNNPRPAFGGRACVGADLQAEMCNTQACEKTQLEFMSQQCARTDGQPLRSSPGGASFYHWGAAVPHSQGDALCRHMCRAIGESFIMKRGDSFLDGTRCMPSGPREDGTLSLCVSGSCRTFGCDGRMDSQQVWDRCQVCGGDNSTCSPRKGSFTAGRAREYVTFLTVTPNLTSVYIANHRPLFTHLAVRIGGRYVVAGKMSISPNTTYPSLLEDGRVEYRVALTEDRLPRLEEIRIWGPLQEDADIQVYRRYGEEYGNLTRPDITFTYFQPKPRQAWVWAAVRGPCSVSCGAGLRWVNYSCLDQARKELVETVQCQGSQQPPAWPEACVLEPCPPYWAVGDFGPCSASCGGGLRERPVRCVEAQGSLLKTLPPARCRAGAQQPAVALETCNPQPCPARWEVSEPSSCTSAGGAGLALENETCVPGADGLEAPVTEGPGSVDEKLPAPEPCVGMSCPPGWGHLDATSAGEKAPSPWGSIRTGAQAAHVWTPAAGSCSVSCGRGLMELRFLCMDSALRVPVQEELCGLASKPGSRREVCQAVPCPARWQYKLAACSVSCGRGVVRRILYCARAHGEDDGEEILLDTQCQGLPRPEPQEACSLEPCPPRWKVMSLGPCSASCGLGTARRSVACVQLDQGQDVEVDEAACAALVRPEASVPCLIADCTYRWHVGTWMECSVSCGDGIQRRRDTCLGPQAQAPVPADFCQHLPKPVTVRGCWAGPCVGQGTPSLVPHEEAAAPGRTTATPAGASLEWSQARGLLFSPAPQPRRLLPGPQENSVQSSACGRQHLEPTGTIDMRGPGQADCAVAIGRPLGEVVTLRVLESSLNCSAGDMLLLWGRLTWRKMCRKLLDMTFSSKTNTLVVRQRCGRPGGGVLLRYGSQLAPETFYRECDMQLFGPWGEIVSPSLSPATSNAGGCRLFINVAPHARIAIHALATNMGAGTEGANASYILIRDTHSLRTTAFHGQQVLYWESESSQAEMEFSEGFLKAQASLRGQYWTLQSWVPEMQDPQSWKGKEGTYPYDVPDYALSTTEVAMHTSTSSSVTKSYISSQTNDTHKRDTYAATPRAHEVSEISVRTVYPPEEETGERVQLAHHFSEPEITLIIFGVMAGVIGTILLISYGIRRLIKKSPSDVKPLPSPDTDVPLSSVEIENPETSDQ
Q: How did the “enzymatic cleavage of vWF subdomain A2 detected by Western blot” value turn out when B2 was run?
A: the cell-expressed ADAMTS13 (lane 4) appears more active than the recombinant ADAMTS13 (lane 2), despite the fact that there is 6× less cell-expressed ADAMTS13 (13ng) than recombinant ADAMTS13 (75 ng) in the assay

— patent US20180135012A1
